Source: publication PMC6538167

Target: Sodium/potassium-transporting ATPase subunit alpha-1 (human (endogenous in frontal lobe tissue)) (UniProt P05023)

In the case of SST14 (peptide), the total ^86Rb^+ uptake in HEK293 cells in the presence of SST14 (50 μM), compared to controls is reported as 74.4 % of control, the total ^86Rb^+ uptake in ReN (ReNcell VM) cells in the presence of SST14 (50 μM), compared to controls is reported as 91.5 % of control and the total ^86Rb^+ uptake in mouse N2a cells in the presence of SST14 (50 μM), compared to controls is reported as 53.6 % of control.
